Positions count from the first letter of the chain named. Names may count otherwise. “And” between values parts separate entries of the source, which are not always exact repeats. Equal values may be shown once.

As usually defined, the Kd is the constant that tells how readily two partners part at equilibrium. In general, koff refers to the rate constant with which the complex falls apart. A word on the kon: it is the rate constant with which the complex forms. What is called stoichiometry N is the number of molecules, sites or subunits per partner or assembly.

Data set [1] addresses T1, human FcRn mutant T149N_G151T (ectodomain heterodimer with β2M) (human, UniProt P55899 24-297; P61769 21-119, T149N | G151T).
T1 construct: signal peptide in the construct; ectodomain of the FcRn α-chain (FCGRT gene), Met1-Ser297 of UniProt P55899; β-2-microglobulin, Met1-Met119 of UniProt P61769; The change brings in the N-linked glycosylation site of mouse FcRn; source: CHO-S, electroporated, purified from the medium (StrepTrap XT)
Put plainly: BLI; HAstV1 spike loaded, FcRn mutants in solution at 500, 250, 125, 62.5 and 31.25 nM; pH 7.0; 1:1 model. To be noted: both partners purified. A general note: In BLI a coated tip is dipped into the sample, and binding shifts an interference pattern.

Data set [2] concerns the target T2, neonatal Fc receptor (FcRn), recombinant human ectodomain heterodimer of FcRn α-chain and β2 microglobulin, … (human, UniProt P55899;P61769, biotin on the AviTag (where FcRn was loaded on streptavidin biosensors)).
T2 construct: also called human FcRn; wild-type FcRn; source: CHO-S, electroporated, purified from the medium (StrepTrap XT); not shown: AviTag, C-terminal, kept
The data set is described as above. To be noted: both partners purified.

In data set [3] the target is T3, human FcRn mutant D153E (ectodomain heterodimer with β2M) (human, UniProt P55899 24-297; P61769 21-119, D153E).
T3 construct: signal peptide in the construct; ectodomain of the FcRn α-chain (FCGRT gene), Met1-Ser297 of UniProt P55899; β-2-microglobulin, Met1-Met119 of UniProt P61769; source: CHO-S, electroporated, purified from the medium (StrepTrap XT)
The data set is described as above. The settings on record: both partners purified.

Data set [4] addresses T2, neonatal Fc receptor (FcRn), …. Put plainly: BLI; HIS1K biosensors loaded with 10x histidine-tagged spike, FcRn in solution at 1000, 500, 250, 125 and 62.5 nM; pH 7.0 buffer, 25 °C; 1:1 model. The settings on record: both partners purified.
Data set [5] concerns the molecule itself. Put plainly: crystal structure; FcRn-HAstV1 spike complex, tags removed, 3.4 Å; hanging drop, 0.1 M NaCl, 0.1 M Bis-Tris:HCl pH 6.1, 1 M ammonium sulfate.
Data set [6] deals with T4, neonatal Fc receptor (FcRn), recombinant ectodomain heterodimer of FcRn α-chain and β2 microglobulin (human, UniProt P55899 24-297; P61769 21-119).
T4 construct: signal peptide in the construct; ectodomain of the wild-type FCGRT gene (FcRn α-chain), human, UniProt P55899, Met1-Ser297; followed by a C-terminal thrombin cleavage site before the tags; β-2-microglobulin (β2M), human, UniProt P61769, Met1-Met119; Tags were removed with thrombin only for crystallization; nothing is said of their removal for BLI; also called human FcRn; wild-type FcRn; source: …
Put plainly: BLI; streptavidin biosensors loaded with Avitag-biotinylated HAstV1 spike K467H (3 ug/mL), dipped into FcRn (2000 nM in the shown replicate); pH 7.0 (0.1 M sodium phosphate, 150 mM NaCl, 0.05% Tween-20); 25 °C; 1:1 binding model; triplicate. To be noted: both partners purified.

Data set [7] concerns the target T4, neonatal Fc receptor (FcRn), …. Put plainly: BLI; streptavidin biosensors loaded with Avitag-biotinylated HAstV1 spike K467H, dipped into FcRn; pH 5.0 (0.1 M sodium acetate, 150 mM NaCl, 0.05% Tween-20); 25 °C; 1:1 binding model; triplicate. To be noted: both partners purified.
For data set [8], the target named is T2, neonatal Fc receptor (FcRn), …. Put plainly: BLI; streptavidin biosensors loaded with Avitag-biotinylated spike, FcRn in solution (500-62.5 nM for the wild type); pH 7.0 (0.1 M sodium phosphate, 150 mM NaCl, 0.05% Tween-20), 25 °C; 1:1 model. The settings on record: both partners purified.
Data set [9] has the same target. Put plainly: BLI; streptavidin biosensors loaded with Avitag-biotinylated spike, FcRn in solution (500-62.5 nM for the wild type); pH 5.0 (0.1 M sodium acetate, 150 mM NaCl, 0.05% Tween-20), 25 °C; 1:1 model. To be noted: both partners purified.
For data set [10], the target named is HAstV1 capsid spike domain, Avitag-biotinylated (human astrovirus 1 (HAstV1), UniProt O12792 433-645, biotin on the Avitag). Put plainly: BLI; biosensors loaded with biotinylated HAstV1 spike (streptavidin, as in Fig. 1a); human or mouse FcRn in solution, 500, 250, 125, 62.5 nM; pH 7.0 (0.1 M sodium phosphate, 150 mM NaCl, 0.05% Tween-20), 25 °C; 1:1 model; average of three replicates. The settings on record: both partners purified.

B1: HAstV1 capsid spike domain, 10x histidine-tagged (domain or fragment)
chain: KVVLTFGAPMSPNANNKQTWVNKPLDAPSGHYNVKIAKDVDHYLTMQGFTSIASVDWYTIDFQPSEAPAPIQGLQVLVNISKKADVYAIKQFVTAQTNNKHQVTSLFLVKVTTGFQVNNYLSYFYRASATGDATTNLLVRGDTYTAGISFTQGGWYLLTNTSIVDGAMPPGWVWNNVELKTNTAYHMDKGLVHLIMPLPESTQMCYEMLTSIP
notes: capsid spike domain of the HAstV1 capsid protein (ORF2), UniProt O12792; also called HAstV1 spike; WT; source: E. coli T7Express, purified (HisPur cobalt resin); not shown: His10, C-terminal, kept
In the case of B1, the Kd in data set [1] came to 500 nM; in data set [2] it was 230 nM; in [3], 1600 nM; in [4], 270 nM. The koff in [4] came out at 0.014 s⁻¹. The kon in data set [4] came out at 52000 M⁻¹ s⁻¹.

B2: HAstV1 capsid spike domain, tag removed with thrombin (domain or fragment)
chain: B1 chain
notes: capsid spike domain of the HAstV1 capsid protein (ORF2), UniProt O12792; Form used for the SEC complex and the crystal; also called HAstV1 spike; source: E. coli T7Express, purified (HisPur cobalt resin), tag removed with thrombin, SEC; not shown: His10, C-terminal, cleaved
In the case of B2, the “stoichiometry N” value in data set [5] was found to be 2.

B3: HAstV1 capsid spike mutant K467H, Avitag-biotinylated (domain or fragment)
chain: B1 chain with K35H, I80S
modifications: biotin on the Avitag
notes: also called HAstV1_K467H spike; HAstV1 spike K467H; source: T7Express E. coli, purified (HisPur cobalt resin); not shown: Avitag, C-terminal, kept
As to B3, in data set [6], the dissociation constant Kd was 19200 nM and 21500 nM and 26800 nM; the koff is 0.239 s⁻¹ and 0.259 s⁻¹ and 0.236 s⁻¹; the kon is 12500 M⁻¹ s⁻¹ and 12000 M⁻¹ s⁻¹ and 8800 M⁻¹ s⁻¹. Moreover, in data set [7], the dissociation constant (Kd) was 447 nM and 869 nM and 1040 nM; the koff is 0.033 s⁻¹ and 0.0561 s⁻¹ and 0.0625 s⁻¹; the kon is 73900 M⁻¹ s⁻¹ and 64500 M⁻¹ s⁻¹ and 60200 M⁻¹ s⁻¹.

B4: HAstV8 capsid spike domain, 10x histidine-tagged (domain or fragment)
chain: GEQFRVLLTVGPPMAPNTANSQNWVNKTIVPPENQYTVKIGIDLEHYTTMQGFTPVESVSWYTADFQPSDEPSPIPGLYARVNNTKKADVYGVQQFKSSHTNNRHQITSVFLVRVTTSFQVINYTSYFIRGAESGSNVSNLKIRDQTYHTPLQFTQGKWYLLTSTVMHDGPTSSGWVWMNQELTNNIAYRVDPGMMYLITPPPAASQLYFELHTVLPQA
notes: capsid spike domain of the HAstV8 capsid protein (ORF2); also called HAstV8 spike; source: E. coli T7Express, purified (HisPur cobalt resin); not shown: His10, C-terminal, kept
In the case of B4, in [4], the dissociation constant Kd was determined as 390 nM, the koff was found to be 0.03 s⁻¹ and the kon was 76000 M⁻¹ s⁻¹.

B5: HAstV1 capsid spike domain, Avitag-biotinylated (domain or fragment)
chain: B1 chain
modifications: biotin on the Avitag
notes: capsid spike domain of the HAstV1 capsid protein (ORF2), UniProt O12792; it may carry a further tag for the cobalt resin; also called biotinylated HAstV1 spike; Avitag-biotinylated HAstV1 spike; source: E. coli T7Express, purified (HisPur cobalt resin)
As to B5, the Kd in data set [8] turned out to be 188 nM; in [9] it was 102 nM.

B6: recombinant mouse FcRn (receptor)
chain 1: SETRPPLMYHLTAVSNPSTGLPSFWATGWLGPQQYLTYNSLRQEADPCGAWMWENQVSWYWEKETTDLKSKEQLFLEALKTLEKILNGTYTLQGLLGCELASDNSSVPTAVFALNGEEFMKFNPRIGNWTGEWPETEIVANLWMKQPDAARKESEFLLNSCPERLLGHLERGRRNLEWKEPPSMRLKARPGNSGSSVLTCAAFSFYPPELKFRFLRNGLASGSGNCSTGPNGDGSFHAWSLLEVKRGDEHHYQCQVEHEGLAQPLTVDLDSSARSS
chain 2: IQKTPQIQVYSRHPPENGKPNILNCYVTQFHPPHIEIQMLKNGKKIPKVEMSDMSFSKDWSFYILAHTEFTPTETDTYACRVKHASMAEPKTVYWDRDM
In data set [10], B6 had a Kd of 58 nM, a koff of 0.003 s⁻¹ and a kon of 52000 M⁻¹ s⁻¹.

The values above are taken from article PMC12583548 (Nature Communications, 2025).
